Several values for one entry are separate records, joined by “and”; a condition that tells them apart may be missing. Equal entries are not always repeated.
Details: Escherichia coli (strain K12); pH 7.6; 25 °C; GdnHCl; CD; HEPES 10 mM; KCl 100 mM; transition: 3; reversible: yes; whole UniProt chain shown

B1: Nickel-responsive regulator wild type, P0A6Z6 (protein)
chain: MQRVTITLDDDLLETLDSLSQRRGYNNRSEAIRDILRSALAQEATQQHGTQGFAVLSYVYEHEKRDLASRIVSTQHHHHDLSVATLHVHINHDDCLEIAVLKGDMGDVQHFADDVIAQRGVRHGHLQCLPKED
Question: With B1 as the protein, how does the “denaturant midpoint (higher = more stable)” value read?
Answer: The value was 1.2 M and 2.8 M.

Reference: FireProtDB (doi:10.1021/bi049405c)
